Laboratory results: US20130045219A1 (UCB, published 2013)
Like-named read-outs stand apart in the source and are kept apart here.

T1: CD154 expressed on D1.1 Jurkat cells (UniProt P29965 1-261, limits assumed)
T1 sequence (looked up): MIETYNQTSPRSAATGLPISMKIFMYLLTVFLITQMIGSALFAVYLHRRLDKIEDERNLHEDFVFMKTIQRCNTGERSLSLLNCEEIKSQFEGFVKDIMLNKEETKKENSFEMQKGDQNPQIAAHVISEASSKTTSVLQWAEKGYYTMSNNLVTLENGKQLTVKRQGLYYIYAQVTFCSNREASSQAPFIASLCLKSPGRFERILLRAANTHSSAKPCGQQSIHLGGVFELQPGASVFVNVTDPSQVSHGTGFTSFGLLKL

T2: Myc-tagged CD154 (UniProt P29965 116-261, limits assumed)
T2 construct: Captured on the ELISA plate by anti-Myc antibody 9E10; The order of tag and CD154 is not known; also called CD40L; not shown: Myc tag
T2 sequence (looked up): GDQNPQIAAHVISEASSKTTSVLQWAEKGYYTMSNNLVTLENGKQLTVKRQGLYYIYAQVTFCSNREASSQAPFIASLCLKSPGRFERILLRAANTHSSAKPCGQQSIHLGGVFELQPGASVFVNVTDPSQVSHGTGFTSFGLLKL

B1: chimeric 342 Fab′ (unlabeled 342 Fab′ of FIG. 29C) (Fab, V domains shown)
VH: QVQLKESGPGLVQPSETLSLTCTVSGFSSTNYHVHWVRQPPGKSLEWMGVIWGDGDTSYNSVLKSRLSITRDTSRSQVFLKMSSLQTEDTATYYCARQLTHYYVLAAWGQGASVTVS
VL: DIQMTQSPASLSASLGETVTVECRASEDLYYNLAWYQRKPGNSPQLLIYDTYRLADGVPSRFSGSGSGTQYSLKINTLPSGDVASYFCQQYYKFPFTFGSGTKLELK
notes: also called ch342 Fab
B2: anti-CD154 antibody 338 (Fab, V domains shown)
VH: QVQLTESGPGLVQPSQTLSLTCTVSGFSLTSHHISWVRQPPGKGLEWVGVMWNDGGTLYNSALKSRPSISRDTSKSQVFLKMSSLQTEDTATYYCARGKMHYYVLDAWGQGASVTVS
VL: DIQMTQSPASLSASLGETVTIECRTSEDIYSNLAWYRQRPGKSPQLLIYDTNRLADGVPSRFSGSGSGTQYSLKINSLQSEDVASYFCQHYSNFPWTFGGDTKLELK
B3: soluble human CD154 protein (extracellular domain) (ligand)
chain: T2 sequence (looked up)
notes: also called sCD154; recombinant extracellular domain of human CD154
B4: 342 Fab′ (Fab, V domains shown)
VH: EVQLVESGGGLVQPGGSLRLSCAVSGFSSTNYHVHWVRQAPGKGLEWMGVIWGDGDTSYNSVLKSRFTISRDTSKNTVYLQMNSLRAEDTAVYYCARQLTHYYVLAAWGQGTLVTVSS
VL: DIQMTQSPSSLSASVGDRVTITCRASEDLYYNLAWYQRKPGKAPKLLIYDTYRLADGVPSRFSGSGSGTDYTLTISSLQPEDFASYYCQQYYKFPFTFGQGTKVEIKR
B5: humanized 342 Fab, graft gL4gH1 (Fab, V domains shown)
VH: B4 VH
VL: B4 VL
B6: anti-CD154 antibody 381 Fab′ (Fab, V domains shown)
VH: EVPLVESGGGLVQPGRSMKLSCVASGFTFSDYYMAWVRQAPKKGLEWVASISYEGSSTYYGDSVKGRFTVSRDIAKSTLYLQMHSLKSEDTAIYYCARHDDSPGYYFDYWGQGVMVTVS
VL: DIQMTQSPTSLSASLGETVSIECLAGEDISNVLAWYQQKSGGSPQLLIYAANRLQDGVPSRFSGSGSGTRYSLKISGMRPEDEADYFCQQTFRYPLTFGSGTKLELK

How the values were obtained:
[1] = target: B3; assay: Biacore (SPR): antibody or Fab' captured on immobilized anti-human IgG (Fc- or Fab'-specific) F(ab')2, recombinant extracellular domain of human CD154 titrated over it (Example 4); chimaeric Fab'
Protocol: (§1) Catalogue Number: BR-1001-88, Biacore AB, Uppsala, Sweden. Buffer stored at 4° C. Immobilization buffer is Acetate 5.0 (being 10 mM sodium acetate pH 5.0). Catalogue number: BR-1003-51, Biacore AB, Uppsala, Sweden. Buffer stored at 4° C. Ligand capture: Affinipure F(ab′)₂ fragment goat anti-human IgG, Fab′ fragment specific (Catalogue number: 109-006-097) or Fc fragment specific (Catalogue number: 109-006-098), Jackson ImmunoResearch Inc (Pennsylvania, USA). Reagents stored at 4° C. […] Analyte: Recombinant extracellular domain of human CD154. Material was prepared at 2 mg/mL (40 μM) in phosphate-buffered saline, stored at 4° C., and diluted in HBE-EP running buffer for the assays. […] Regeneration Solution: 40 mM HCl prepared by dilution with distilled water from an 11.6 M stock solution (BDH, Poole, England. Catalogue number: 101254H). 5 mM NaOH prepared by dilution with distilled water from a 50 mM stock solution. Catalogue number: BR-1003-58, Biacore AB, Uppsala, Sweden. Assay Method: BIA (Biamolecular Interaction Analysis) was performed using a Biacore® 3000 (Biacore AB). Affinipure F(ab′)₂ fragment goat anti-human IgG, Fc- or Fab′-fragment specific (Jackson ImmunoResearch) were immobilized on a CM5 Sensor Chip via amine coupling chemistry to a capture level of ≈6000 response units (RUs). HBS-EP buffer (10 mM HEPES pH 7.4, 0.15 M NaCl, 3 mM EDTA, 0.005% Surfactant P20, Biacore AB) was used as the running buffer with a flow rate of 10 μl/min. Anti-CD154 antibodies or Fab fragments were used at concentrations such that, once captured by the immobilized anti-human IgG-Fc (or anti-human IgG Fab′) surface, gave a signal of ≈200 RUs. Human CD154 was titrated over the captured antibody, at various concentrations. 90 μL of CD154 was injected over the surface (association phase), followed by a 240 second dissociation phase, all at a flow rate of 30 μl/min. […] Background subtraction binding curves were analyzed using the BIAevaluation software (version 3.2) following standard procedures. Kinetic parameters were determined from the fitting algorithm.

[2] = target: T1, CD154 expressed on D1.1 Jurkat cells; assay: cell-based or functional assay
[3] = target: T1, CD154 expressed on D1.1 Jurkat cells; assay: flow cytometry: inhibition of the binding of hCD40-mFc-PE to CD154-expressing D1.1 Jurkat cells by serially diluted chimaeric Fab' (Example 5)
Protocol: (§2) A flow cytometry-based assay was used to assess the binding of labeled CD40 to CD154-expressing D1.1 cells. D1.1 Jurkat cells (American Type Culture Collection) were maintained in RPMI 1640 medium (Gibco, 31870-025)) containing 10% (v/v) fetal calf serum (FCS), 2 mM glutamine (Invitrogen, 23030024), 1 mM sodium pyruvate (Invitrogen, 11360-039), 1% (v/v) D-(+)-glucose (Sigma, G8769) & 10 mM HEPES (Sigma, H0887). At time of assay, 100,000 D1.1 cells were incubated in 100 μL RPMI 1640 medium+10% FCS, in the presence or absence of serially diluted anti-CD154 antibody for 15 minutes at room temperature. 5 μL of a 1:75 dilution of hCD40-mFc-PE (Alexis Corp, ANC-504-050) was then added and incubated for a further 30 minutes at room temperature. After washing twice in phosphate-buffered saline (PBS) containing 1% (w/v) bovine serum albumin (BSA fraction V, Serologicals Proteins Inc, 81-068-5) and 0.02% (w/v) sodium azide (BDH, 103692K), cells were resuspended in 200 μL PBS/1% BSA/0.02% sodium azide and flow cytometry performed on a Becton Dickinson FACScan. The values for geometric mean fluorescence (FL2) were assessed in all cases.

[4] = target: T3, CD40hFc (human CD40 fusion protein) (human, UniProt P25942 21-193, limits assumed); assay: Biacore (SPR), sequential injections: CD40hFc captured, then soluble CD154 (ECD); concentrations not given (Example 10)
T3 construct: not shown: human Fc (hFc)

CD40:sCD154 complex = target: T4, CD40:sCD154 complex (human, UniProt P25942 21-193, limits assumed); assay: Biacore (SPR): CD40hFc captured, ECD bound, then buffer or Fab injected; concentration not given (Example 10)
T4 construct: also called CD40:CD154 complex; not shown: human Fc (hFc)

[5] = target: T1, CD154 expressed on D1.1 Jurkat cells; assay: cell-based or functional assay; remark: listed apart in the source
[6] = target: T1, CD154 expressed on D1.1 Jurkat cells; assay: flow cytometry competition binding assay: serially diluted antibody against biotinylated 342 Fab on CD154-expressing D1.1 Jurkat cells, streptavidin-R-phycoerythrin detection (Example 6)
Protocol: A flow cytometry-based assay was used to assess the binding of anti-CD154 antibody to CD154-expressing D1.1 cells. D1.1 Jurkat cells (American Type Culture Collection) were maintained in RPMI 1640 medium (Gibco, 31870-025) containing 10% (v/v) fetal calf serum (FCS), 2 mM glutamine (BioWhittaker, 17-605E) and […] (Mediatech, 30002107). […] The cells were washed three times in FACS buffer with centrifugation at 290×g for 3 minutes in between washes. A 1:500 dilution of streptavadin-R-phycoerythrin conjugate (Jackson Immunoresearch, 016-110-084) in […] FACS buffer was added and the cells were incubated for one hour at 4° C. The cells were washed once and fixed in PBS with 3% formaldehyde at room temperature for 10 minutes. The cells were resuspended in FACS buffer and run on a FacsCalibur (BD). The values for geometric mean fluorescence (FL2) were assessed in all cases.

[7] = target: T1, CD154 expressed on D1.1 Jurkat cells; assay: flow cytometry: inhibition of the binding of hCD40-mFc-PE to CD154-expressing D1.1 Jurkat cells by serially diluted antibody (Example 5)
Protocol: as §2

[8] = target: B3; assay: Biacore (SPR): antibody or fragment captured on immobilized anti-human IgG (Fc- or Fab'-specific) F(ab')2, recombinant extracellular domain of human CD154 titrated over it (Example 4)
Protocol: as §1

Myc-tagged CD154 = target: T2, Myc-tagged CD154; assay: ELISA: Myc-tagged CD154 captured on anti-Myc antibody 9E10, biotin 342 Fab' titrated, streptavidin-HRP detection (Example 14)
Protocol: In this assay, anti-Myc antibody 9E10 was coated onto an ELISA plate. Myc-tagged CD154 was captured by this antibody. […] The plate was washed and the amount of biotinylated 5c8 Fab bound was determined using streptavidin HRP as a secondary. The signal was graphed and fit using a either a one site binding hyperbola or a two site binding hyperbola curve fit in Prism software (Graph Pad).
A titration of biotin 5c8 Fab′ on CD154 to determine the appropriate concentration for cross-blocking analysis was also performed (FIG. 29B).

[9] = target: B3; assay: Biacore; purified Fab captured on the chip, human CD154 extracellular domain as analyte

T4 sequence (P25942 21-193 limits assumed, one chain of several): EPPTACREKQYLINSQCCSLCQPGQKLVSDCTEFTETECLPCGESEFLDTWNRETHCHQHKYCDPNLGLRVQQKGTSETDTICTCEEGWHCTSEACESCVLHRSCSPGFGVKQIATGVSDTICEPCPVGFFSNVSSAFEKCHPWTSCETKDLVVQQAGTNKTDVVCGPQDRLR
T3 sequence (P25942 21-193 limits assumed): as the sequence (P25942 21-193 limits assumed, one chain of several) above

Binder: B1
Kd [1]: 0.016 nM
IC50 of inhibition of ICAM-1 (CD54) upregulation on CD40-expressing Ramos B cells co-cultured with CD154-expressing D1.1 Jurkat cells [2]: 0.053 µg/mL
IC50 [3]: 0.008 µg/mL

Binder: B2
Kd [1]: 0.015 nM
IC50 of inhibition of ICAM-1 (CD54) upregulation on CD40-expressing Ramos B cells co-cultured with CD154-expressing D1.1 Jurkat cells [2]: 0.192 µg/mL
IC50 [3]: 0.006 µg/mL

Binder: B3
binding result [4]: binds

Binder: B4
binding result (CD40:sCD154 complex): no binding
IC50 of inhibition of ICAM-1 (CD54) upregulation on CD40-expressing Ramos B cells co-cultured with CD154-expressing D1.1 Jurkat cells [5]: 0.04 µg/mL
IC50 [6]: 0.024 nM
IC50 [7]: 0.012 µg/mL
Kd [8]: 0.028 nM
EC50 (read off the curve) (Myc-tagged CD154): ~0.1 nM

Binder: B5
Kd [9]: 0.00455 nM
koff [9]: 6.97e-05 s⁻¹
kon [9]: 1.53e+07 M⁻¹ s⁻¹

Binder: B6
Kd [1]: 0.005 nM
IC50 of inhibition of ICAM-1 (CD54) upregulation on CD40-expressing Ramos B cells co-cultured with CD154-expressing D1.1 Jurkat cells [2]: 0.1 µg/mL
IC50 [3]: 0.022 µg/mL
